The labels stand for the following.
B1: G000487: TTR sgRNA modified sequence, Human, SEQ ID No. 94; guide sequence of CR003357 (nucleic acid)
guide: mU*mU*mC*rUrUrUrGrGrCrArArCrUrUrArCrCrCrArGrGrUrUrUrUrArGrAmGmCmUmAmGmAmAmAmUmAmGmCrArArGrUrUrArArArArUrArArGrGrCrUrArGrUrCrCrGrUrUrArUrCrAmAmCmUmUmGmAmAmAmAmAmGmUmGmGmCmAmCmCmGmAmGmUmCmGmGmUmGmCmU*mU*mU*mU
B2: G000497: TTR sgRNA modified sequence, Human, SEQ ID No. 104; guide sequence of CR003335 (nucleic acid)
guide: mC*mU*mG*rCrUrCrCrUrCrCrUrCrUrGrCrCrUrUrGrCrGrUrUrUrUrArGrAmGmCmUmAmGmAmAmAmUmAmGmCrArArGrUrUrArArArArUrArArGrGrCrUrArGrUrCrCrGrUrUrArUrCrAmAmCmUmUmGmAmAmAmAmAmGmUmGmGmCmAmCmCmGmAmGmUmCmGmGmUmGmCmU*mU*mU*mU
B3: G000486: TTR sgRNA modified sequence, Human, SEQ ID No. 93; guide sequence of CR003339 (nucleic acid)
guide: mA*mC*mA*rCrArArArUrArCrCrArGrUrCrCrArGrCrArGrUrUrUrUrArGrAmGmCmUmAmGmAmAmAmUmAmGmCrArArGrUrUrArArArArUrArArGrGrCrUrArGrUrCrCrGrUrUrArUrCrAmAmCmUmUmGmAmAmAmAmAmGmUmGmGmCmAmCmCmGmAmGmUmCmGmGmUmGmCmU*mU*mU*mU
B4: G000490: TTR sgRNA modified sequence, Human, SEQ ID No. 97; guide sequence of CR003366 (nucleic acid)
guide: mA*mA*mA*rUrArGrArCrArCrCrArArArUrCrUrUrArCrGrUrUrUrUrArGrAmGmCmUmAmGmAmAmAmUmAmGmCrArArGrUrUrArArArArUrArArGrGrCrUrArGrUrCrCrGrUrUrArUrCrAmAmCmUmUmGmAmAmAmAmAmGmUmGmGmCmAmCmCmGmAmGmUmCmGmGmUmGmCmU*mU*mU*mU
B5: G000492: TTR sgRNA modified sequence, Human, SEQ ID No. 99; guide sequence of CR003342 (nucleic acid)
guide: mC*mU*mU*rCrUrCrUrArCrArCrCrCrArGrGrGrCrArCrGrUrUrUrUrArGrAmGmCmUmAmGmAmAmAmUmAmGmCrArArGrUrUrArArArArUrArArGrGrCrUrArGrUrCrCrGrUrUrArUrCrAmAmCmUmUmGmAmAmAmAmAmGmUmGmGmCmAmCmCmGmAmGmUmCmGmGmUmGmCmU*mU*mU*mU
B6: G000496: TTR sgRNA modified sequence, Human, SEQ ID No. 103; guide sequence of CR005304 (nucleic acid)
guide: mG*mG*mC*rCrGrUrGrCrArUrGrUrGrUrUrCrArGrArArGrUrUrUrUrArGrAmGmCmUmAmGmAmAmAmUmAmGmCrArArGrUrUrArArArArUrArArGrGrCrUrArGrUrCrCrGrUrUrArUrCrAmAmCmUmUmGmAmAmAmAmAmGmUmGmGmCmAmCmCmGmAmGmUmCmGmGmUmGmCmU*mU*mU*mU
B7: G000483: TTR sgRNA modified sequence, Human, SEQ ID No. 90; guide sequence of CR005298 (nucleic acid)
guide: mU*mC*mC*rArCrUrCrArUrUrCrUrUrGrGrCrArGrGrArGrUrUrUrUrArGrAmGmCmUmAmGmAmAmAmUmAmGmCrArArGrUrUrArArArArUrArArGrGrCrUrArGrUrCrCrGrUrUrArUrCrAmAmCmUmUmGmAmAmAmAmAmGmUmGmGmCmAmCmCmGmAmGmUmCmGmGmUmGmCmU*mU*mU*mU
B8: G000493: TTR sgRNA modified sequence, Human, SEQ ID No. 100; guide sequence of CR003368 (nucleic acid)
guide: mA*mA*mG*rUrGrCrCrUrUrCrCrArGrUrArArGrArUrUrGrUrUrUrUrArGrAmGmCmUmAmGmAmAmAmUmAmGmCrArArGrUrUrArArArArUrArArGrGrCrUrArGrUrCrCrGrUrUrArUrCrAmAmCmUmUmGmAmAmAmAmAmGmUmGmGmCmAmCmCmGmAmGmUmCmGmGmUmGmCmU*mU*mU*mU
B9: G000495: TTR sgRNA modified sequence, Human, SEQ ID No. 102; guide sequence of CR003343 (nucleic acid)
guide: mC*mA*mG*rArGrGrArCrArCrUrUrGrGrArUrUrCrArCrGrUrUrUrUrArGrAmGmCmUmAmGmAmAmAmUmAmGmCrArArGrUrUrArArArArUrArArGrGrCrUrArGrUrCrCrGrUrUrArUrCrAmAmCmUmUmGmAmAmAmAmAmGmUmGmGmCmAmCmCmGmAmGmUmCmGmGmUmGmCmU*mU*mU*mU
B10: G000485: TTR sgRNA modified sequence, Human, SEQ ID No. 92; guide sequence of CR003336 (nucleic acid)
guide: mC*mC*mU*rCrCrUrCrUrGrCrCrUrUrGrCrUrGrGrArCrGrUrUrUrUrArGrAmGmCmUmAmGmAmAmAmUmAmGmCrArArGrUrUrArArArArUrArArGrGrCrUrArGrUrCrCrGrUrUrArUrCrAmAmCmUmUmGmAmAmAmAmAmGmUmGmGmCmAmCmCmGmAmGmUmCmGmGmUmGmCmU*mU*mU*mU
B11: G000491: TTR sgRNA modified sequence, Human, SEQ ID No. 98; guide sequence of CR003338 (nucleic acid)
guide: mA*mU*mA*rCrCrArGrUrCrCrArGrCrArArGrGrCrArGrGrUrUrUrUrArGrAmGmCmUmAmGmAmAmAmUmAmGmCrArArGrUrUrArArArArUrArArGrGrCrUrArGrUrCrCrGrUrUrArUrCrAmAmCmUmUmGmAmAmAmAmAmGmUmGmGmCmAmCmCmGmAmGmUmCmGmGmUmGmCmU*mU*mU*mU
B12: G000484: TTR sgRNA modified sequence, Human, SEQ ID No. 91; guide sequence of CR003367 (nucleic acid)
guide: mA*mG*mA*rCrArCrCrArArArUrCrUrUrArCrUrGrGrArGrUrUrUrUrArGrAmGmCmUmAmGmAmAmAmUmAmGmCrArArGrUrUrArArArArUrArArGrGrCrUrArGrUrCrCrGrUrUrArUrCrAmAmCmUmUmGmAmAmAmAmAmGmUmGmGmCmAmCmCmGmAmGmUmCmGmGmUmGmCmU*mU*mU*mU

Strand notation (5' to 3'): a small letter for the sugar, then the base; units joined by * are phosphorothioate-linked, units joined directly phosphodiester-linked; [ ] holds rarer units or linkages, { } end groups; capitals alone tell only the bases. m = 2'-O-methyl; r = 2'-OH (RNA)

In the first data set the test system is off-target integration sites. Nature of the data set: Off-target oligo insertion based assay in primary human hepatocytes (Table 30). Type of data set: cell-based. The settings on record: TTR sgRNAs in PHH, 100 ng Cas9 mRNA, 25 nM sgRNA, 12.5 nM donor oligo. On the procedure: Off-target analysis of sgRNAs targeting TTR was performed in primary human hepatocytes (PHH) as described in Example 5, with the following modifications. PHH were plated at a density of 33,000 cells per well on collagen-coated 96-well plates as described in Example 1. Twenty-four hours post plating, cells were washed with media and transfected using Lipofectamine RNAiMAX (ThermoFisher, Cat. 13778150) as described in Example 1. Cells were transfected with a lipoplex containing 100 ng Cas9 mRNA, immediately followed by the addition of another lipoplex containing 25 nM of the sgRNA and 12.5 nM of the donor oligo (0.3 μL/well). Cells were lysed 48 hours post-transfection and gDNA was extracted and analyzed as further described in Example 5. The data is graphically represented in FIG. 20.
Fewer sites were detected in PHH for every guide tested as compared to the HekCas9 cell line, with no unique sites detected in PHH alone.
Take B1: the “# Sites in PHH” value worked out at 0.
For the molecule B2, the “# Sites in PHH” value was determined as 3.
On the same count and under the same terms, with B3 the figure was 0.
As for B4, the “# Sites in PHH” value is 0.
Still for that read-out and setting: then B5, with 5.
For B6, the “# Sites in PHH” value was determined as 0.
Still for that read-out and setting: with B7 the figure was 0; with B8, 1; with B9, 1.
B10: the “# Sites in PHH” value stood at 3.
B11: the “# Sites in PHH” value is listed as 7.
For B12, the “# Sites in PHH” value amounted to 0.

The test system of a further data set is TTR. Nature of the data set: TTR editing in primary human hepatocytes transfected with Spy Cas9 mRNA and sgRNAs (Table 13). Type of data set: cell-based. The settings on record: primary human hepatocytes co-transfected with Spy Cas9 mRNA (SEQ ID NO:2) and sgRNAs, 12.5 nM. On the procedure: Primary liver hepatocytes. Primary human liver hepatocytes (PHH) and primary cynomolgus liver hepatocytes (PCH) (Gibco) were cultured per the manufacturer's protocol (Invitrogen, protocol 11.28.2012). In brief, the cells were thawed and resuspended in hepatocyte thawing medium with supplements (Gibco, Cat. CM7000) followed by centrifugation at 100 g for 10 minutes for human and 80 g for 4 minutes for cyno. The supernatant was discarded and the pelleted cells resuspended in hepatocyte plating medium plus supplement pack (Invitrogen, Cat. A1217601 and CM3000). Cells were counted and plated on Bio-coat collagen I coated 96-well plates (ThermoFisher, Cat. 877272) at a density of 33,000 cells/well for human or 60,000 cells/well for cyno (or 65,000 cells/well when assaying effects on TTR protein, described further below). Plated cells were allowed to settle and adhere for 6 or 24 hours in a tissue culture incubator at 37° C. and 5% CO2 atmosphere. After incubation cells were checked for monolayer formation and media was replaced with hepatocyte culture medium with serum-free supplement pack (Invitrogen, Cat. A1217601 and CM4000).
Lipofectamine RNAiMax (ThermoFisher, Cat. 13778150) based transfections were conducted as per the manufacturer's protocol. Cells were sequentially transfected with a lipoplex containing Spy Cas9 mRNA (100 ng), Lipofectamine RNAiMax (0.4 […]) and tracer RNA ([…]), Lipofectamine RNAiMax (0.4 μL/well) and OptiMem.
Transfected cells were harvested post-transfection at 24, 48, or 72 hours. The genomic DNA was extracted from each well of a 96-well plate using 50 μL/well BuccalAmp DNA Extraction solution (Epicentre, Cat. QE09050) per manufacturer's protocol. All DNA samples were subjected to PCR and subsequent NGS analyses, as described herein.
To quantitatively determine the efficiency of editing at the target location in the genome, sequencing was utilized to identify the presence of insertions and deletions introduced by gene editing.
Primers were designed around the target site within the gene of interest (e.g. TTR), and the genomic area of interest was amplified.
Additional PCR was performed per the manufacturer's protocols (Illumina) to add chemistry for sequencing. The amplicons were sequenced on an Illumina MiSeq instrument. The reads were aligned to a reference genome (e.g., the human reference genome (hg38), the cynomologus reference genome (mf5), the rat reference genome (rn6), or the mouse reference genome (mm10)) after eliminating those having low quality scores. The resulting files containing the reads were mapped to the reference genome (BAM files), where reads that overlapped the target region of interest were selected and the number of wild type reads versus the number of reads which contain an insertion, substitution, or deletion was calculated.
The editing percentage (e.g., the “editing efficiency” or “percent editing” or “indel frequency”) is defined as the total number of sequence reads with insertions/deletions (“indels”) or substitutions over the total number of sequence reads, including wild type.
Guides in modified sgRNA format targeting human and/or cyno TTR were delivered to primary human hepatocytes and primary cyno hepatocytes as described in Example 1. Percent editing was determined for crRNAs comprising each guide sequence across each cell type and the guide sequences were then rank ordered based on highest % edit. The screening data for the guide sequences in Table 2 in both cell lines are listed below (Table 12 through 15).
B1: the “Avg % Deletion” value stood at 2.27%, the “Avg % Edit” value was 49.57% and the “Avg % Insert” value is 47.38%.
For the molecule B2, the “Avg % Deletion” value is reported as 5.85%, the “Avg % Edit” value worked out at 40.33% and the “Avg % Insert” value stood at 34.48%.
In the case of B3, the “Avg % Deletion” value was determined as 56.37%, the “Avg % Edit” value was found to be 59.13% and the “Avg % Insert” value came out at 2.82%.
The matching figures for B4: 5.38%, 24.72% and 19.38%.
Turning to B5, the “Avg % Deletion” value is reported as 2.22%, the “Avg % Edit” value is reported as 34.65% and the “Avg % Insert” value worked out at 32.45%.
On the same counts, the results for B6 are 52.25%, 63.30% and 11.08%.
On the same counts, the results for B7 are 23.85%, 27.82% and 4.05%.
The matching figures for B8: 0.97%, 11.55% and 10.65%.
For the molecule B9, the “Avg % Deletion” value was determined as 4.45%, the “Avg % Edit” value is on record as 47.77% and the “Avg % Insert” value was 43.40%.
As to B10, the “Avg % Deletion” value came to 1.97%, the “Avg % Edit” value is on record as 30.82% and the “Avg % Insert” value was determined as 28.87%.
On the same counts, the results for B11 are 3.60%, 45.93% and 42.42%.
With B12, the “Avg % Deletion” value was found to be 29.48%, the “Avg % Edit” value is listed as 43.37% and the “Avg % Insert” value came out at 13.98%.

The values above are taken from patent US11795460B2, “Compositions and methods for TTR gene editing and treating ATTR amyloidosis” (Intellia Therapeutics, Inc., priority 2017, dated 2023).
